Measurements published in publication doi:10.1101/2024.05.13.593894 (bioRxiv, 2024).
Like-named read-outs stand apart in the source and are kept apart here.

B1: FXR120-RXRα98 heterodimer (FXR_(120-486) with RXRα_(98-462)) (complex, human)
chain 1: KKPRMGASAGRIKGDELCVVCGDRASGYHYNALTCEGCKGFFRRSITKNAVYKCKNGGNCVMDMYMRRKCQECRLRKCKEMGMLAECMYTGLLTEIQCKSKRLRKNVKQHADQTVNEDSEGRDLRQVTSTTKSCREKTELTPDQQTLLHFIMDSYNKQRMPQEITNKILKEEFSAEENFLILTEMATNHVQVLVEFTKKLPGFQTLDHEDQIALLKGSAVEAMFLRSAEIFNKKLPSGHSDLLEERIRNSGISDEYITPMFSFYKSIGELKMTQEEYALLTAIVILSPDRQYIKDREAVEKLQEPLLDVLQKLCKIHQPENPQHFACLLGRLTELRTFNHHHAEMLMSWRVNDHKFTPLLCEIWDVQ
chain 2: MNPVSSSEDIKPPLGLNGVLKVPAHPSGNMASFTKHICAICGDRSSGKHYGVYSCEGCKGFFKRTVRKDLTYTCRDNKDCLIDKRQRNRCQYCRYQKCLAMGMKREAVQEERQRGKDRNENEVESTSSANEDMPVERILEAELAVEPKTETYVEANMGLNPSSPNDPVTNICQAADKQLFTLVEWAKRIPHFSELPLDDQVILLRAGWNELLIASFSHRSIAVKDGILLATGLHVHRNSAHSAGVGAIFDRVLTELVSKMRDMQMDKTELGCLRAIVLFNPDSKGLSNPAEVEALREKVYASLEAYCKHKYPEQPGRFAKLLLRLPALRSIGLKCLEHLFFFKLIGDTPIDTFLMEMLEAPHQMT
B2: SRC1_(630-987) (domain or fragment, human, UniProt Q15788 630-987, looked up)
chain: SHKLVQLLTTTAEQQLRHADIDTSCKDVLSCTGTSNSASANSSGGSCPSSHSSLTERHKILHRLLQEGSPSDITTLSVEPDKKDSASTSVSVTGQVQGNSSIKLELDASKKKESKDHQLLRYLLDKDEKDLRSTPNLSLDDVKVKVEKKEQMDPCNTNPTPMTKPTPEEIKLEAQSQFTADLDQFDQLLPTLEKAAQLPGLCETDRMDGAVTSVTIKSEILPASLQSATARPTSRLNRLPELELEAIDNQFGQPGTGDQIPWTNNTVTAINQSKSEDQCISSQLDELLCPPTTVEGRNDEKALLEQLVSFLSGKDETELAELDRALGIDKLVQGGGLDVLSERFPPQQATPPLIMEER
modifications: biotin (biotin-labelled in the BLI assays; site not stated)

Tests used:
SRC1_(630-987) = molecular target: B2; assay: SEC-MALS
[1] = molecular target: SRC1_(630-987) M3 mutant (NR-box3 mutated) (human) (UniProt Q15788); assay: BLI
[2] = molecular target: B1; assay: BLI
[3] = molecular target: B1; assay: BLI; remark: listed apart in the source
[4] = molecular target: B1; assay: BLI; remark: listed apart in the source

Binder | stoichiometry N (SRC1_(630-987)) | fold reduction in affinity against wild type SRC1 (630-987) [1] [fold] | Kd [2] [nM] | Kd [3] [nM] | Kd [4] [nM]
B1 | 1 | 2 | – | – | –
B2 | – | – | 49 | 43.1 | 23.7
